B1: LuxSit-i: LuxSit variant R60S/A96L/M110V, SEQ ID NO:2, named for high brightness (protein)
chain: MSEEQIRQFLRRFYEALDSGDADTAASLFHPGVTIHLWDGVTFTSREEFREWFERLFSTSKDAQREIKSLEVRGDTVEVHVQLHATHNGQKHTVDLTHHWHFRGNRVTEVRVHINPTG
modifications: VARIANT 1 optionally absent; VARIANT 118 optionally absent

Assays:
[1] = biological target: T1, native Renilla reniformis luciferase (RLuc) (Renilla reniformis, UniProt P27652); test: Michaelis-Menten kinetics of native Renilla luciferase (RLuc) with CTZ; type: biochemical; details: substrate CTZ; Table 3
T1 construct: host and tag of RLuc not clearly stated
T1 sequence (P27652 1-311): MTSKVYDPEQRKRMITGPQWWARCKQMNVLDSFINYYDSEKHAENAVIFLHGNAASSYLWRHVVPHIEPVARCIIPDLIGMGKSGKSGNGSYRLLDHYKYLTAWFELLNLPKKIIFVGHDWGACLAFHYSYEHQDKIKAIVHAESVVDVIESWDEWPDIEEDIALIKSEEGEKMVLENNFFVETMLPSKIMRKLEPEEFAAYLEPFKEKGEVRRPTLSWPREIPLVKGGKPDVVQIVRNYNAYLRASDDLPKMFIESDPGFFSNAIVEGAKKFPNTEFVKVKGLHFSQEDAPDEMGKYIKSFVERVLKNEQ
Source text: Synthetic genes and oligonucleotides were purchased from Integrated DNA Technologies or GenScript. The synthetic gene was inserted between NdeI and XhoI sites of a pET29b+ vector, containing an N-terminal hexahistidine tag followed by a TEV protease cleavage site and a C-terminal stop codon. Restriction endonucleases, Q5 PCR polymerase, and T4 ligase were purchased from NEB. Plasmid DNA, PCR products, or digested fragments were purified by Qiagen DNA purification kits. DNA sequences were analyzed by Genewiz. Coelenterazine (CTZ) was purchased from Gold Biotechnology. Diphenylterazine (DTZ), pyridyl diphenylterazine (8pyDTZ), and Furimazine (FRZ) were purchased from MedChemExpress. […] DNA and protein concentrations were determined by a NanoDrop™ small-volume 8 channel UV/vis spectrometer. […] All luminescence measurements were acquired by a Biotek Synergy Neo2T™ Multi-Mode Plate Reader. To convert relative arbitrary unit (RLU) to the number of photons, Neo2 plate reader was calibrated by determining the chemiluminescence of luminol with known quantum yield in the presence of horseradish peroxidase and hydrogen peroxide in K2CO3 aqueous solution as previously described^45. SDS PAGE and luminescence images were captured by a Bio-Rad ChemiDocT™ XRS+. Images were analyzed using the Fiji image analysis software. […]

[2] = Michaelis-Menten kinetics measurements of purified luciferases; type: biochemical
Description: For Michaelis-Menten kinetics measurements, 25 μL of serial diluted DTZ substrate in Tris pH 8.0 buffer was added into the wells of a white 96-well half-area microplate containing 25 μL of purified luciferases (final enzyme concentration: 100 nM; substrate concentration: 0.78 to 50 μM). Measurements were taken every 1 min (0.1 s integration and 10 s shaking between each interval) for a total of 20 min. Initial velocities were estimated as the average of the light intensities from the first three data points to fit the Michaelis-Menten equation. All relative arbitrary unit (RLU) per second values were converted to photon/s by the luminol-H2O2—HRP calibration method^45. Following the equation: Imax=LQY×kcat×[E], Imax is the maximal photon flux (photon s^−1), [E] is the total enzyme concentration, and V ax is the maximum photon flux per molecule (photon s^−1 molecule^−1) from the fitting of the Michaelis-Menten equation. To determine the luminescent quantum yields, 25 μL of 5 μM individual substrate in PBS was injected into 25 μL PBS containing 100 nM corresponding luciferase. DTZ was used for all LuxSit variants while CTZ was used as the substrate of native RLuc. The luminescence signals were monitored until the reactions were completed (0.1 s integration and measurements were taken every 5 s for a total of 40 min). […] To record emission spectra, 25 μL of 50 μM DTZ in PBS were injected into 25 μL of 200 nM pure luciferases and the emission spectra were collected with 0.1 s integration and 2 nm increments from 300 to 700 num. In vitro luminescence activity measurements of LuxSit-i expressing HEK293T or HeLa cells were done similarly as 15,000 intact cells or lysates were used in the assay instead of purified luciferases. To evaluate the substrate specificity, 25 μL of 50 μM substrate analogs in PBS were added to 25 μL of 200 nM indicated luciferases, and the signals were recorded over 20 min. Data were shown as the total luminescence signal over the first 10 min. We normalized the data by setting the highest emission substrate at 100%.

[3] = Luminescent quantum yield of LuxSit variants; type: biochemical; details: consuming 125 pmol of DTZ in PBS with 50 nM recombinant luciferase; estimated relative to reported quantum yield of RLuc; mean ± s.d., n = 3
Description: (§1) FIG. 10. Additional characterization of LuxSit variants. (a) Normalized emission kinetics of 15,000 intact HeLa cells expressing LuxSit-i, 100 nM purified LuxSit-i, or 100 nM purified LuxSit-f in the presence of 50 μM DTZ. The more extended emission kinetics in HeLa cells is likely due to the diffusion rate of DTZ across cell membranes. […] (c) Luminescent quantum yield was estimated from the integrated luminescence signal until completely converting 125 pmol substrates to photons in the presence of 50 nM corresponding luciferase (see Methods). All data points were plotted as the average of triplicate measurements.
For Michaelis-Menten kinetics measurements, 25 μL of serial diluted DTZ substrate in Tris pH 8.0 buffer was added into the wells of a white 96-well half-area microplate containing 25 μL of purified luciferases (final enzyme concentration: 100 nM; substrate concentration: 0.78 to 50 μM). […] The luminescence signals were monitored until the reactions were completed (0.1 s integration and measurements were taken every 5 s for a total of 40 min). […] In vitro luminescence activity measurements of LuxSit-i expressing HEK293T or HeLa cells were done similarly as 15,000 intact cells or lysates were used in the assay instead of purified luciferases. […] Data were shown as the total luminescence signal over the first 10 min. […]

[4] = Substrate specificity on coelenterazine substrate analogs; type: biochemical
Description: FIG. 4. High substrate specificity of designed luciferases allows multiplexed bioassay. (a) Chemical structures of Coelenterazine substrate analogs. (b) Activity of LuxSit-i on selected luciferin substrates. Luminescence image (top) and signal quantification (bottom) of the indicated substrate in the presence of 100 nM LuxSit-i. LuxSit-i has high specificity for the design target substrate, DTZ. (c) Heatmap visualization of the substrate specificity of LuxSit-i. Renilla luciferase (RLuc), Gaussia luciferase (GLuc), engineered NLuc from Oplophorus luciferase. […] (d) Luminescence emission spectrum of LuxSit-i/DTZ and RLuc/PP-CTZ can be spectrally resolved by 528/20 and 390/35 filters (shown in dashed bars) and only recognize the cognate substrate. (e) Schematic of the multiplex luciferase assay. […] (f-g) Luminescence signals from cells can be measured under either substrate-resolved or spectrally resolved methods by a plate reader. (f) For the substrate-resolved method, luminescence intensity was recorded without a filter after adding either PP-CTZ or DTZ. […] Luminescence signals were acquired from the lysate of 15,000 cells in CelLytic™ M reagent while CyOFP fluorescence signal was used to normalize cell numbers and transfection efficiencies. […]

[5] = Circular dichroism spectra and thermal denaturation; type: physicochemical; details: 220 nm, 25° C. to 95° C.
Source text: Synthetic genes and oligonucleotides were purchased from Integrated DNA Technologies or GenScript. The synthetic gene was inserted between NdeI and XhoI sites of a pET29b+ vector, containing an N-terminal hexahistidine tag followed by a TEV protease cleavage site and a C-terminal stop codon. Restriction endonucleases, Q5 PCR polymerase, and T4 ligase were purchased from NEB. Plasmid DNA, PCR products, or digested fragments were purified by Qiagen DNA purification kits. DNA sequences were analyzed by Genewiz. Coelenterazine (CTZ) was purchased from Gold Biotechnology. Diphenylterazine (DTZ), pyridyl diphenylterazine (8pyDTZ), and Furimazine (FRZ) were purchased from MedChemExpress. […] DNA and protein concentrations were determined by a NanoDrop™ small-volume 8 channel UV/vis spectrometer. […] All luminescence measurements were acquired by a Biotek Synergy Neo2T™ Multi-Mode Plate Reader. To convert relative arbitrary unit (RLU) to the number of photons, Neo2 plate reader was calibrated by determining the chemiluminescence of luminol with known quantum yield in the presence of horseradish peroxidase and hydrogen peroxide in K2CO3 aqueous solution as previously described^45. SDS PAGE and luminescence images were captured by a Bio-Rad ChemiDocT™ XRS+. Images were analyzed using the Fiji image analysis software.
Purified protein samples were prepared at 15 μM in pH 7.4 10 mM phosphate buffer. Spectra from 190 nm to 260 nm were recorded at 25° C., 50° C., 75° C., 95° C., and after cooling back to 25° C. Thermal denaturation was monitored at 220 nm from 25° C. to 95° C. […]

[6] = Luciferase activities of re-designed sequences based on LuxSit-i (Table 1); type: biochemical; details: LuxSit-f and re-designed sequences based on LuxSit-i (Table 1)
Source text: In another embodiment, the proteins comprise an amino acid sequence at least 30%, 35%, 40%, 45%, 50%, 55%, 60%, 65%, 70%, 75%, 80%, 85%, 90%, 91%, 92%, 93%, 94%, 95%, 96%, 97%, 98%, 99%, or 100% identical to the amino acid selected from the group consisting of SEQ ID NO:1-181, as shown in Table 1. SEQ ID NO:5-181 in Table 1 are re-designed amino acid sequences based on LuxSit-i (SEQ ID NO:2), with their luciferase activities shown.

[7] = Luminescence decay curves of LuxSit-i in various pH buffers; type: biochemical
Description: as §1

Row | Molecule | Vmax [1] [photon s^−1 molecule^−1] | photon flux (photon s^−1) greater than native Renilla reniformis luciferase (RLuc) [2] [%] | LQY (luminescent quantum yield) [3] [%] | selectivity for DTZ over bis-CTZ [4] [fold] | thermal stability (CD melting) [5] | Activity [6] | pH dependence of DTZ luminescent reaction [7] | higher photon flux over LuxSit (25 μM DTZ) | Relative emission intensity (integrated luminescence intensity over the first 20 min, normalized to LuxSit, 25 μM DTZ in Tris pH 8.0 buffer)
1 | Oc1ccc(Cc2nc3c(Cc4ccccc4)nc(-c4ccc(O)cc4)cn3c2O)cc1 [CTZ, Coelenterazine] | 0.26 | – | – | – | – | – | – | – | –
2 | B1 | – | 38 | 14.5 ± 1.8 | 50 | thermostable | 763.6 | pH-dependent | more than 100 fold | 153

From patent US20250075190A1, “DE NOVO DESIGNED LUCIFERASE” (UNIVERSITY OF WASHINGTON, priority 2022, published 2025)
